# Source: article PMC6087011, “The mechanism by which a distinguishing arabinofuranosidase can cope with internal di-substitutions in arabinoxylans” (Biotechnology for Biofuels, 2018)
# B1: TxAbfD3 (Thermobacillus xylanilyticus) (protein)
# chain: MNVASRVVVNADRVKGTINRNIYGHFSEHLGRCIYEGLWVGEDSPIPNTNGIRNDVLEALKQMKIPVLRWPGGCFADEYHWKDGVGPREKRKRMVNTHWGGVIENNHFGTHEFMMLCELLGCEPYISGNVGSGTVQEMSEWVEYITFDGESPMANWRRENGREKPWRIKYWGVGNENWGCGGNMRAEYYADLYRQFQTYLRNYGDNKLHKIACGANTADYHWTEVLMKQAAPFMHGLSLHYYTVPGPWEKKGPATGFTTDEWWVTLKKALFMDRLVTKHSAIMDVYDPDKRIDLIVDEWGTWYDVEPGTNPGFLYQQNSIRDALVAGATLHIFHRHCDRVRMANIAQLVNVLQSVILTEGERMLLTPTYHVFNMFKVHQDAELLDTWESVERTGPEGELPKVSVSASRAADGKIHISLCNLDFETGASVDIELRGLNGGVSATGTTLTSGRIDGHNTFDEPERVKPAPFRDFKLEGGHLNASLPPMSVTVLELTAG
# Tests used:
# [1] = tested on: O=[N+]([O-])c1ccc(O[C@@H]2O[C@@H](CO)[C@H](O)[C@H]2O)cc1; assay: purified protein; details: pH 5.5 McIlvaine buffer, 50 °C
# [2] = target: XacAbf51, GH51 α-L-arabinofuranosidase from Xanthomonas axonopodis pv. citri (X. axonopodis pv. citri str. 306); assay: AUC
# [3] = target: XacAbf51, GH51 α-L-arabinofuranosidase from Xanthomonas axonopodis pv. citri (X. axonopodis pv. citri str. 306); assay: SAXS
# [4] = target: XacAbf51, GH51 α-L-arabinofuranosidase from Xanthomonas axonopodis pv. citri (X. axonopodis pv. citri str. 306); assay: […]; 20 °C; […], pH 7.5; […]
# [5] = substrate: O=[N+]([O-])c1ccc(O[C@@H]2O[C@@H](CO)[C@H](O)[C@H]2O)cc1; assay: colorimetric p-nitrophenolate release, A400; assay type: biochemical, Thermobacillus xylanilyticus; details: pH 5.5 McIlvaine buffer, 50 °C
# Description: colorimetric p-nitrophenolate release, A400 on TxAbfD3
molecule,measurement,setting,value
XacAbf51 (Xanthomonas citri subsp. citri 306),Km,[1],190 ± 10 µM
same,kcat,[1],56.4 ± 0.8 s⁻¹
same,kcat/Km,[1],300000 M⁻¹ s⁻¹
"XacAbf51, GH51 α-L-arabinofuranosidase from Xanthomonas axonopodis pv. citri (enzyme)",stoichiometry N,[2],3
same,stoichiometry N,[3],3
same,stoichiometry N,[4],3
B1,Km,[5],520 ± 60 µM
same,kcat,[5],154 ± 4.2 s⁻¹
same,kcat/Km,[5],300000 M⁻¹ s⁻¹
